Measured values published in article doi:10.1101/2024.06.18.599654 (bioRxiv, 2024).
Values joined by “and” are separate entries in the source; they are usually repeats but may differ in a detail not shown here. Equal entries are not always repeated.

Target: the molecule itself
Test: SEC

B1: PE11 (Rv1169c) esterase of Mycobacterium tuberculosis, recombinant His-tagged (enzyme)
chain: MSFVTTRPDSIGETAANLHEIGVTMSAHDDGVTPLITNVESPAHDLVSIVTSMLFSMHGELYKAIARQAHVIHESFVQTLQTSKTSYWLTELANRAGTST
  stoichiometry N: 4 and 2
